From patent publication US20250236663A1 (NEURACLE SCIENCE, published 2025) come the findings set out here.

Assay [1] concerns the target T1, FAM19A5 mutant M6 (human).
T1 construct: FAM19A5 with region 6 replaced by the consensus of FAM19A1-4; The entry already carries the changes
T1 chain: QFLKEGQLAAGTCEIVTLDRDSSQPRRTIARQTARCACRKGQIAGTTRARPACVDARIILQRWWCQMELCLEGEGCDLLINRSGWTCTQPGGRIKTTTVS
Briefly: ELISA on phage-displayed FAM19A5 mutants; y axis without label. A general note: In an ELISA, binding on a coated surface is turned into a signal by an enzyme label.

For assay [2], the target named is T2, FAM19A5 mutant M7 (human).
T2 construct: FAM19A5 with region 7 replaced by the consensus of FAM19A1-4; The entry already carries the changes
T2 chain: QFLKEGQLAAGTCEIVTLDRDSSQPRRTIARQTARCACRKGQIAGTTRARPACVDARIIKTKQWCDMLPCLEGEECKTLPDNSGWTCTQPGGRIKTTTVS
The assay is described as above.

For assay [3], the target named is T3, FAM19A5 mutant M8 (human).
T3 construct: FAM19A5 with region 8 replaced by the consensus of FAM19A1-4; The entry already carries the changes
T3 chain: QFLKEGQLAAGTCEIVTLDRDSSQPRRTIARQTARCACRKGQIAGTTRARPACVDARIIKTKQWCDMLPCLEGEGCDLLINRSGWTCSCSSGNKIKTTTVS
The description is as above.

Assay [4] deals with T4, FAM19A5-M1.
T4 construct: also called FAM19A5 mutant M1
T4 FAM19A5 mutant: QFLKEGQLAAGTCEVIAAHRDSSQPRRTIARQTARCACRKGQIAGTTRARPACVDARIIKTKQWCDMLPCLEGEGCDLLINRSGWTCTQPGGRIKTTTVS
The experiment in a line: ELISA on phage-displayed FAM19A5 mutants; y axis without label; no blank in the panel, lowest bars about 0.05.

Assay [5] concerns the target T5, FAM19A5-M2.
T5 construct: also called FAM19A5 mutant M2
T5 FAM19A5 mutant: T4 FAM19A5 mutant with V15I, I16V, A17T, A18L, H19D, D21C, S22C, S23N, Q24K, P25N
The description is as above.

The target in assay [6] is T6, FAM19A5-M3.
T6 construct: also called FAM19A5 mutant M3
T6 FAM19A5 mutant: T4 FAM19A5 mutant with V15I, I16V, A17T, A18L, H19D, R27I, T28E, I29E, A30R, R31S
Described as above.

Assay [7] deals with T7, FAM19A5-M4.
T7 construct: also called FAM19A5 mutant M4
T7 FAM19A5 mutant: T4 FAM19A5 mutant with V15I, I16V, A17T, A18L, H19D, A34V, R35K, A37S, R39F, K40P
The description is as above.

Assay [8] has as its target T8, FAM19A5-M5.
T8 construct: also called FAM19A5 mutant M5
T8 FAM19A5 mutant: T4 FAM19A5 mutant with V15I, I16V, A17T, A18L, H19D, A49N, R50K, A52S
The assay is described as above.

Assay [9] deals with T3, FAM19A5 mutant M8. Briefly: ELISA on phage-displayed FAM19A5 mutants; y axis without label.
Assay [10] has as its target T4, FAM19A5-M1. Briefly: ELISA on phage-displayed FAM19A5 mutants; y axis without label; no blank in the panel.
The target in assay [11] is T5, FAM19A5-M2. Described as above.
The target of assay [12] is T6, FAM19A5-M3. The description is as above.
Assay [13] deals with T7, FAM19A5-M4. Described as above.
Assay [14] concerns the target T8, FAM19A5-M5. The assay is described as above.
The target in assay [15] is T1, FAM19A5 mutant M6. The assay is described as above.
Assay [16] deals with T2, FAM19A5 mutant M7. Described as above.
For assay [17], the target named is T1, FAM19A5 mutant M6. The experiment in a line: ELISA on phage-displayed FAM19A5 mutants; y axis without label.

Substitutions are numbered along the chain they refer to. Like-named read-outs stand apart in the source and are kept apart here.

B1: Anti-FAM19A5 (P2-A03) (antibody, V domains shown)
VH: QSVEESGGRLVTPGTPLTLTCTVSGFSLNNYDMSWVRQAPGKGLEYIGFMDTDGSAYYATWAKGRFTISRTSTTVDLKMTSPTTEDTATYFCARRGSSYYGGIDIWGPGTPVTVSL
VL: ELDLTQTPASVSEPVGGTVTIKCQASQSIGGNLAWYQQKPGQPPKLLIYRASTLASGVPSRFKGSGSGTDFTLTISDLECADAATYYCQSPAYDPAAYVGNAFGGGTELEIL
notes: Only variable domains are tied to the name
On to B1, for which the binding result in the assay with FAM19A5 mutant M6 [1] is “no binding”; in the assay with FAM19A5 mutant M7 [2], “no binding”; with FAM19A5 mutant M8 [3], “no binding”; with FAM19A5-M1 [4], “binds”; in the assay with FAM19A5-M2 [5], “binds”; in the assay with FAM19A5-M3 [6], “binds”. The binding result in the assay with FAM19A5-M4 [7] and with FAM19A5-M5 [8] was “binds” in each case.

B2: Anti-FAM19A5 (13F7) (antibody, V domains shown)
VH: QVQLQEWGAGLLKPSETLSLTCAINAESFNGYSWTWIRQTPGKGLEWIGEISHFGSANYNPSLKSRATISADKSKNQFSLKLTSVTAVDTAVYYCARALRGTYSRFYYGMDVWGQGTTVTVSS
VL: DIVMTQTPLSLPVAPGEPASISCRSSQSLLHSNGYNYLDWYVQKPGQPPQLLIYLGSNRASGVPDRFSGSGSGTDFTLKISRVEAEDVGVYYCMQARQTPLTFGGGTKVEIK
notes: as for B1
Consider B2, for which the binding result with FAM19A5 mutant M8 [9] is reported as “no binding”; with FAM19A5-M1 [10] it was “binds”; with FAM19A5-M2 [11] it was “binds”; with FAM19A5-M3 [12] it was “binds”; with FAM19A5-M4 [13], “binds”; in the assay with FAM19A5-M5 [14] it was “binds”. Moreover, the binding result in the assay with FAM19A5 mutant M6 [15] and with FAM19A5 mutant M7 [16] was “binds” in each case.

B3: Anti-FAM19A5 (13B4) (antibody, V domains shown)
VH: QVQLQESGPGLVKPSGTLSLNCAVSGGSISSSNWWSWVRQPPGKGLEWIGEIYHGGTTNYNPSLKGRVTMSVDKTKNQFSLRLSSVTAVDTAVYYCARWQLVGGLDVWGQGTTVTVSS
VL: SYELTQPLSVSVSPGQTASITCSGDKLGNVYASWYQQKPGQSPTLVIYQDNKRPSGIPERFSGSNSGKTATLTISGTQALDEADYYCQAWDSSTAVFGGGTKLTVL
notes: as for B1
For B3, the binding result in the assay with FAM19A5 mutant M6 [17] is listed as “no binding”; in the assay with FAM19A5 mutant M8 [9], “no binding”; in the assay with FAM19A5-M1 [10] it was “binds”; in the assay with FAM19A5-M2 [11] it was “binds”; in the assay with FAM19A5-M3 [12] it was “binds”; with FAM19A5-M4 [13] it was “binds”. Further, the binding result with FAM19A5-M5 [14] and with FAM19A5 mutant M7 [16] was “binds” each time.
